The values below come from patent US20120093719A1 (PROSCAN RX PHARMA, published 2012).

Assay [1] deals with T1, prostate specific membrane antigen (PSMA) (human, UniProt Q04609 1-750).
T1 construct: whole, on cells; In the assays PSMA stood as endogenous protein in LNCaP cell membrane preparations (ELISA) or LNCaP lysate (western blot); The background says PSMA forms a noncovalent homodimer
The experiment in a line: ELISA, serially diluted antibody on membrane preparation of PSMA-expressing LNCaP cells against PSMA-negative PC-3. As to the method:
FIG. 4: immunoreactivity mAb1 to cancer cell line. Serially diluted purified antibody was tested by ELISA on a cell membrane preparation that express PSMA (LNCaP) or not (PC-3). The antibody reacts strongly with the LNCaP preparation while the PC-3 remains unreactive;
Immunoreactivity of mAb1_against cancer cell line was tested by ELISA. Serially diluted purified antibody was tested on a cell membrane preparation that express PSMA (LNCaP) or not (PC-3).
A general note: In an ELISA, binding on a coated surface is turned into a signal by an enzyme label.

Assay [2] concerns the target T1, prostate specific membrane antigen …. Put plainly: ELISA after 5 days at 37 C in 0.1M glycine buffered with Tris to pH 7.4.
The target is the same in assay [3]. Put plainly: ELISA on LNCaP or PC-3 membrane preparation. As to the method: An ELISA assay was used to test the reactivity and specificity of purified chimeric anti-PSMA antibodies. Briefly, 96-well plates (Immulon 2HB) were coated overnight at 4° C. or for 2 h at 37° C. with 100 uL of PBS containing 5 ug of cell membrane preparation. Plates were washed four times with 200 uL of 10 mM Tris-HCl, 150 mM NaCl, and 0.1% Tween-20 (TBST, pH 7.5), and blocked for 1 h with 200 uL of TBST containing 5% FBS. Plates were then washed and incubated for 1 h at room temperature using 100 uL of serially diluted purified chimeric anti-PSMA antibodies in TBST containing 5% FBS. Antibody binding was detected by the sequential addition, followed by washing, of 100 uL of horseradish peroxidase (HRP) conjugated goat anti-human IgG whole molecule (Jackson Immunoresearch) diluted 1:5000 in TBST containing 5% FBS, for 1 h at room temperature, and 100 uL of HRP colorimetric substrate solution 3,3′,5,5′-tetramethylbenzidine (BioFX Laboratories). The reaction was stopped with the addition of 100 uL of 0.5 M sulphuric acid and the absorbance was read at 450 nm in a microplate reader (Bio-Tek Instruments).
The reactivity of the DOTA conjugated antibody (chAb1-DOTA) was compared to the unconjugated antibody (chAb1) by ELISA on a cell membrane preparation that express PSMA (LNCaP) or not (PC-3) (FIG. 14).

T1 sequence (Q04609 whole entry): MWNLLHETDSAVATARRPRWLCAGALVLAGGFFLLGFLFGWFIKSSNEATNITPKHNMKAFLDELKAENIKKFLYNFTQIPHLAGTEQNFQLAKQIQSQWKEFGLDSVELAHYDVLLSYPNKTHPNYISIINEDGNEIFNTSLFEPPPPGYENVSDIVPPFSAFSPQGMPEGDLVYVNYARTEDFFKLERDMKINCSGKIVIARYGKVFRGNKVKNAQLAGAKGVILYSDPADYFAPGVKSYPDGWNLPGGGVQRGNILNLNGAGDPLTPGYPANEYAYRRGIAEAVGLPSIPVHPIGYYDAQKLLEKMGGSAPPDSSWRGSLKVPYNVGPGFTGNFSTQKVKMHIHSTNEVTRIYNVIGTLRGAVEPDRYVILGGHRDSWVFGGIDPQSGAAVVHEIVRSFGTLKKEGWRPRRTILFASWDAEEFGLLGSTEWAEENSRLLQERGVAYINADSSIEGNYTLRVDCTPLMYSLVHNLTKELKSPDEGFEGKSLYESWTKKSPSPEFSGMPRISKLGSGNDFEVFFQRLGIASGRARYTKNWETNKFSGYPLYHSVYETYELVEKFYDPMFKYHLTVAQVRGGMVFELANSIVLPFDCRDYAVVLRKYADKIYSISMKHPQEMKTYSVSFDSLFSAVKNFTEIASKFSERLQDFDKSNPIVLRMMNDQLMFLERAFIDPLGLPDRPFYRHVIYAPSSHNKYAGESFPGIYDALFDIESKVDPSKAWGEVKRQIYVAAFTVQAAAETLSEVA

B1: murine monoclonal anti-PSMA antibody mAb1 (antibody, V domains shown)
VH: EVQLQQSGAELVKPGASVKLSCTASGFNIKDTYMHWVKQRPEQGLEWIGGIDPADGETKYDPKFQDKATITTDTSSNTVYLQISSLTSEDTAVYYCVRSFDYWGQGTTLTVSS
VL: DVVMTQTPLSLPVSLGDQASISCRSSQSLVHSNGNTYLHWYLQKPGQSPKFLIYKASNRFSGVPDRFSGRGSGTDFTLKISRVEAEDLGVYFCFQSTHVPYTFGGGTKLEIKR
notes: also called murine anti-PSMA antibody; murine parental antibody
B1: in assay [1], the binding result was “binds”.

B2: murine/human chimeric anti-PSMA antibody chAb1 (antibody, human IgG1, kappa, V domains shown)
VH: B1 VH
VL: B1 VL
notes: also called chimeric antibody
Consider B2, for which, in assay [2], the binding result is recorded as “binds”.

B3: DOTA-conjugated chimeric anti-PSMA antibody chAb1-DOTA (antibody, V domains shown)
VH: B1 VH
VL: B1 VL
modifications: DOTA conjugated through DOTA-NHS ester; sites and chain not stated
notes: also called DOTA conjugated antibody
B3: the binding result in assay [3] is given as “binds”.
